Results as given in the supplement of paper PMC10567573.

B1: ETS2 (parent)
chain: TSGKRYVYRFVCDLQNLLGFTPEE

Variants of: B1
Assay: protein stability index of a GFP-peptide fusion (GPS, HEK-293T) (PSI 1-6); higher = more stable
Settings: c terminus: a fixed tail appended
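Further: lentivirally expressed fusions sorted by FACS into six bins by GFP to DsRed ratio, PSI derived from sequencing read proportions per bin multiplied by bin number.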

Compared with TSYKRYVYRFVCDLQNLLGFTPEE, TSGIRYVYRFVCDLQNLLGFTPEE is lower in protein stability index: 2.09 for the first, 1.36 for the second.

First: TSGMRYVYRFVCDLQNLLGFTPEE
Second: TSGRRYVYRFVCDLQNLLGFTPEE
The protein stability index of the first is lower: 1.74 for the first, 3.33 for the second.

First: TSGDRYVYRFVCDLQNLLGFTPEE
Second: TSGHRYVYRFVCDLQNLLGFTPEE
The protein stability index of the first is higher: 2.24 for the first, 2.06 for the second.

Compared with TSGYRYVYRFVCDLQNLLGFTPEE, TSGPRYVYRFVCDLQNLLGFTPEE is lower in protein stability index: 3.33 for the first, 1.83 for the second.

Going from TSGLRYVYRFVCDLQNLLGFTPEE to TSGFRYVYRFVCDLQNLLGFTPEE, the protein stability index falls from 2.8 to 2.34.

Going from TSGGRYVYRFVCDLQNLLGFTPEE to TSGERYVYRFVCDLQNLLGFTPEE, the protein stability index falls from 2.54 to 1.72.

First: TSGWRYVYRFVCDLQNLLGFTPEE
Second: TSGARYVYRFVCDLQNLLGFTPEE
The protein stability index of the first is higher: 2.72 for the first, 2.29 for the second.

Compared with TSGQRYVYRFVCDLQNLLGFTPEE, TSGNRYVYRFVCDLQNLLGFTPEE is higher in protein stability index: 1.7 for the first, 2.34 for the second.

Compared with TSGCRYVYRFVCDLQNLLGFTPEE, TSGVRYVYRFVCDLQNLLGFTPEE is lower in protein stability index: 2.58 for the first, 2 for the second.

Going from TSGTRYVYRFVCDLQNLLGFTPEE to TSGKRYVARFVCDLQNLLGFTPEE, the protein stability index falls from 2.17 to 2.12.

Compared with TSGKRYKYRFVCDLQNLLGFTPEE, TSGKRYLYRFVCDLQNLLGFTPEE is lower in protein stability index: 2.3 for the first, 2.22 for the second.

First: TSGKRYNYRFVCDLQNLLGFTPEE
Second: TSGKRYWYRFVCDLQNLLGFTPEE
The protein stability index of the first is lower: 1.25 for the first, 2.61 for the second.

First: TSGKRYEYRFVCDLQNLLGFTPEE
Second: TSGKRYDYRFVCDLQNLLGFTPEE
The protein stability index of the first is lower: 1.3 for the first, 1.46 for the second.

Going from TSGKRYFYRFVCDLQNLLGFTPEE to TSGKRYSYRFVCDLQNLLGFTPEE, the protein stability index rises from 2.25 to 2.83.

First: TSGKRYTYRFVCDLQNLLGFTPEE
Second: TSGKRYQYRFVCDLQNLLGFTPEE
The protein stability index of the first is higher: 2.57 for the first, 1.98 for the second.

Compared with TSGKRYRYRFVCDLQNLLGFTPEE, TSGKRYMYRFVCDLQNLLGFTPEE is higher in protein stability index: 1.03 for the first, 3.69 for the second.

Going from TSGKRYHYRFVCDLQNLLGFTPEE to TSGKRYPYRFVCDLQNLLGFTPEE, the protein stability index falls from 2.04 to 1.84.

Going from TSGKRYAYRFVCDLQNLLGFTPEE to TSGKRQVYRFVCDLQNLLGFTPEE, the protein stability index rises from 1.29 to 1.86.

First: TSGKRLVYRFVCDLQNLLGFTPEE
Second: TSGKRRVYRFVCDLQNLLGFTPEE
The protein stability index of the first is higher: 3.25 for the first, 2.31 for the second.

Going from TSGKRPVYRFVCDLQNLLGFTPEE to TSGKRGVYRFVCDLQNLLGFTPEE, the protein stability index falls from 2.59 to 1.35.

Compared with TSGKRCVYRFVCDLQNLLGFTPEE, TSGKRAVYRFVCDLQNLLGFTPEE is lower in protein stability index: 2.26 for the first, 1.43 for the second.

Compared with TSGKRTVYRFVCDLQNLLGFTPEE, TSGKRFVYRFVCDLQNLLGFTPEE is higher in protein stability index: 2.3 for the first, 2.91 for the second.

TSGKRNVYRFVCDLQNLLGFTPEE and TSGKRDVYRFVCDLQNLLGFTPEE are the same in protein stability index: 1.52 for the first, 1.52 for the second.

Compared with TSGKRSVYRFVCDLQNLLGFTPEE, TSGKRHVYRFVCDLQNLLGFTPEE is higher in protein stability index: 2.26 for the first, 2.41 for the second.

Going from TSGKREVYRFVCDLQNLLGFTPEE to TSGKRVVYRFVCDLQNLLGFTPEE, the protein stability index rises from 1.4 to 2.61.

First: TSGKRIVYRFVCDLQNLLGFTPEE
Second: PSGKRYVYRFVCDLQNLLGFTPEE
The protein stability index of the first is higher: 4.21 for the first, 1.94 for the second.

Compared with CSGKRYVYRFVCDLQNLLGFTPEE, KSGKRYVYRFVCDLQNLLGFTPEE is lower in protein stability index: 1.7 for the first, 1.66 for the second.

Compared with SSGKRYVYRFVCDLQNLLGFTPEE, ISGKRYVYRFVCDLQNLLGFTPEE is higher in protein stability index: 2.4 for the first, 2.6 for the second.

Going from MSGKRYVYRFVCDLQNLLGFTPEE to GSGKRYVYRFVCDLQNLLGFTPEE, the protein stability index rises from 1.86 to 2.08.

Compared with ESGKRYVYRFVCDLQNLLGFTPEE, YSGKRYVYRFVCDLQNLLGFTPEE is lower in protein stability index: 2.38 for the first, 1.71 for the second.

Compared with WSGKRYVYRFVCDLQNLLGFTPEE, HSGKRYVYRFVCDLQNLLGFTPEE is higher in protein stability index: 2.1 for the first, 2.12 for the second.

Compared with QSGKRYVYRFVCDLQNLLGFTPEE, NSGKRYVYRFVCDLQNLLGFTPEE is lower in protein stability index: 1.94 for the first, 1.82 for the second.

Going from RSGKRYVYRFVCDLQNLLGFTPEE to TMGKRYVYRFVCDLQNLLGFTPEE, the protein stability index rises from 2.29 to 2.6.

Going from TRGKRYVYRFVCDLQNLLGFTPEE to TCGKRYVYRFVCDLQNLLGFTPEE, the protein stability index falls from 1.77 to 1.64.

Going from TFGKRYVYRFVCDLQNLLGFTPEE to TIGKRYVYRFVCDLQNLLGFTPEE, the protein stability index rises from 2.74 to 3.22.

Going from THGKRYVYRFVCDLQNLLGFTPEE to TVGKRYVYRFVCDLQNLLGFTPEE, the protein stability index falls from 2.62 to 1.83.

First: TDGKRYVYRFVCDLQNLLGFTPEE
Second: TNGKRYVYRFVCDLQNLLGFTPEE
The protein stability index of the first is lower: 2.89 for the first, 3.49 for the second.

Going from TWGKRYVYRFVCDLQNLLGFTPEE to TPGKRYVYRFVCDLQNLLGFTPEE, the protein stability index falls from 4.44 to 2.25.

Going from TQGKRYVYRFVCDLQNLLGFTPEE to TGGKRYVYRFVCDLQNLLGFTPEE, the protein stability index rises from 1.85 to 2.02.

Going from TKGKRYVYRFVCDLQNLLGFTPEE to TLGKRYVYRFVCDLQNLLGFTPEE, the protein stability index rises from 2.29 to 3.

Going from TAGKRYVYRFVCDLQNLLGFTPEE to TEGKRYVYRFVCDLQNLLGFTPEE, the protein stability index rises from 1.74 to 2.33.

First: TSGKSYVYRFVCDLQNLLGFTPEE
Second: TSGKNYVYRFVCDLQNLLGFTPEE
The protein stability index of the first is lower: 2.87 for the first, 3.24 for the second.

First: TSGKVYVYRFVCDLQNLLGFTPEE
Second: TSGKAYVYRFVCDLQNLLGFTPEE
The protein stability index of the first is lower: 1.72 for the first, 2.44 for the second.

Compared with TSGKKYVYRFVCDLQNLLGFTPEE, TSGKFYVYRFVCDLQNLLGFTPEE is higher in protein stability index: 3.18 for the first, 3.19 for the second.

Going from TSGKDYVYRFVCDLQNLLGFTPEE to TSGKYYVYRFVCDLQNLLGFTPEE, the protein stability index rises from 2.05 to 2.88.

Compared with TSGKPYVYRFVCDLQNLLGFTPEE, TSGKGYVYRFVCDLQNLLGFTPEE is higher in protein stability index: 1.52 for the first, 3.53 for the second.

Going from TSGKEYVYRFVCDLQNLLGFTPEE to TSGKIYVYRFVCDLQNLLGFTPEE, the protein stability index rises from 1.69 to 3.19.
